Source: the supplement of paper PMC7125110
± gives the standard error. For part of these data: Fewer inactive variants are shown than the library holds.

B1: glmS ribozyme (parent)
chain: AUAAAAGCGCCAGAACUACAGAAAUGUAGUUGACGAGGAGGAGGUUUAUCGAAUUUUCGGCGGAUGCCUCCAAA

Assays:
Conditions in all cases: with glucosamine-6-phosphate
[1] = variants of: B1; test: kcat; higher = faster cleavage; RNA array
How it was run: (§1)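 Barcoded glmS ribozyme variants on sequenced MiSeq chips were transcribed in situ by E. coli RNA polymerase and tracked through a hybridised Cy3 probe at 37 °C. Glucosamine-6-phosphate (40 μM to 10 mM) in HEPES/KCl/Mg(OAc)2 buffer was flowed in, and tiles were imaged over ~14 h. Signals were normalised to baseline and to non-cleaving reference variants; per-tile medians were fit to one- or two-exponential decays to give kobs. kcat and KM came from weighted Michaelis–Menten fits across concentrations.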

[2] = variants of: B1; test: KM; higher = weaker cofactor use; RNA array
How it was run: as §1

[3] = variants of: B1; test: self-cleavage kobs at 2500 uM GlcN6P; higher = faster cleavage; RNA array
How it was run: as §1

[4] = variants of: B1; test: self-cleavage kobs at 10000 uM GlcN6P; higher = faster cleavage; RNA array
How it was run: as §1

[5] = variants of: B1; test: self-cleavage kobs at 640 uM GlcN6P; higher = faster cleavage; RNA array
How it was run: as §1

[6] = variants of: B1; test: self-cleavage kobs at 40 uM GlcN6P; higher = faster cleavage; RNA array
How it was run: as §1

[7] = variants of: B1; test: self-cleavage kobs at 160 uM GlcN6P; higher = faster cleavage; RNA array
How it was run: as §1

Variant: G35U C50A
- kcat [1]: 8.05e-05 ± 9.8e-06 s⁻¹
- KM [2]: 1.97 ± 0.74 mM
- self-cleavage kobs at 2500 uM GlcN6P [3]: 4.74e-05 ± 9e-06 s⁻¹
- self-cleavage kobs at 10000 uM GlcN6P [4]: 6.59e-05 ± 1.2e-05 s⁻¹

Variant: G40U U46A
- kcat [1]: 0.000471 ± 0.00012 s⁻¹
- KM [2]: 2.94 ± 1.4 mM
- self-cleavage kobs at 640 uM GlcN6P [5]: 6.83e-05 ± 2.4e-05 s⁻¹
- self-cleavage kobs at 2500 uM GlcN6P [3]: 0.00028 ± 5.4e-05 s⁻¹
- self-cleavage kobs at 10000 uM GlcN6P [4]: 0.000331 ± 7.2e-05 s⁻¹

Variant: A12G U45G
- kcat [1]: 0.000591 ± 1.8e-05 s⁻¹
- KM [2]: 5.26 ± 0.3 mM
- self-cleavage kobs at 640 uM GlcN6P [5]: 6.36e-05 ± 1.3e-05 s⁻¹
- self-cleavage kobs at 2500 uM GlcN6P [3]: 0.000197 ± 4.2e-05 s⁻¹
- self-cleavage kobs at 10000 uM GlcN6P [4]: 0.000386 ± 3.9e-05 s⁻¹

Variant: G13U G29U
- kcat [1]: 0.000324 ± 4.8e-05 s⁻¹
- KM [2]: 3.43 ± 1 mM
- self-cleavage kobs at 640 uM GlcN6P [5]: 4.23e-05 ± 9.2e-06 s⁻¹
- self-cleavage kobs at 2500 uM GlcN6P [3]: 0.000161 ± 2.1e-05 s⁻¹
- self-cleavage kobs at 10000 uM GlcN6P [4]: 0.000234 ± 2.3e-05 s⁻¹

Variant: G41A U47C
- kcat [1]: 7.04e-05 ± 3.2e-07 s⁻¹
- KM [2]: 1.8 ± 0.03 mM
- self-cleavage kobs at 2500 uM GlcN6P [3]: 4.08e-05 ± 1e-05 s⁻¹
- self-cleavage kobs at 10000 uM GlcN6P [4]: 5.98e-05 ± 8.4e-06 s⁻¹

Variant: U30C C68G
- kcat [1]: 4.61e-05 ± 1.8e-05 s⁻¹
- self-cleavage kobs at 40 uM GlcN6P [6]: 3.15e-05 ± 1.2e-05 s⁻¹
- self-cleavage kobs at 160 uM GlcN6P [7]: 5.26e-05 ± 1.7e-05 s⁻¹
- self-cleavage kobs at 640 uM GlcN6P [5]: 8.37e-05 ± 1.7e-05 s⁻¹
- self-cleavage kobs at 2500 uM GlcN6P [3]: 8.75e-05 ± 1.7e-05 s⁻¹
- self-cleavage kobs at 10000 uM GlcN6P [4]: 2.14e-05 ± 9.4e-06 s⁻¹

Variant: A14G U46A
- kcat [1]: 0.0109 ± 0.0043 s⁻¹
- self-cleavage kobs at 40 uM GlcN6P [6]: 0.000166 ± 3.1e-05 s⁻¹
- self-cleavage kobs at 160 uM GlcN6P [7]: 0.000271 ± 7.3e-05 s⁻¹
- self-cleavage kobs at 640 uM GlcN6P [5]: 0.00157 ± 0.00055 s⁻¹
- self-cleavage kobs at 2500 uM GlcN6P [3]: 0.0054 ± 0.001 s⁻¹
- self-cleavage kobs at 10000 uM GlcN6P [4]: 0.00723 ± 0.0012 s⁻¹

Variant: U30A U65G
- kcat [1]: 0.00214 ± 0.00022 s⁻¹
- KM [2]: 5.25 ± 1 mM
- self-cleavage kobs at 160 uM GlcN6P [7]: 6.8e-05 ± 2.4e-05 s⁻¹
- self-cleavage kobs at 640 uM GlcN6P [5]: 0.000275 ± 8.9e-05 s⁻¹
- self-cleavage kobs at 2500 uM GlcN6P [3]: 0.000614 ± 0.00016 s⁻¹
- self-cleavage kobs at 10000 uM GlcN6P [4]: 0.00141 ± 0.00016 s⁻¹

Variant: C11A U55C
- kcat [1]: 0.000132 ± 2.4e-05 s⁻¹
- self-cleavage kobs at 640 uM GlcN6P [5]: 3.19e-05 ± 1.5e-05 s⁻¹
- self-cleavage kobs at 2500 uM GlcN6P [3]: 0.000125 ± 4.2e-05 s⁻¹
- self-cleavage kobs at 10000 uM GlcN6P [4]: 0.000109 ± 2.1e-05 s⁻¹

Variant: A6U G60A
- kcat [1]: < 1e-05 s⁻¹
- self-cleavage kobs at 640 uM GlcN6P [5]: < 1e-05 s⁻¹

Variant: A48U U65G C70U
- kcat [1]: 0.00017 ± 4.1e-05 s⁻¹
- self-cleavage kobs at 160 uM GlcN6P [7]: < 1e-05 s⁻¹
- self-cleavage kobs at 2500 uM GlcN6P [3]: 0.000122 ± 2.8e-05 s⁻¹
- self-cleavage kobs at 10000 uM GlcN6P [4]: 0.000132 ± 3e-05 s⁻¹

Variant: A42G U47C
- kcat [1]: 0.00858 ± 0.0022 s⁻¹
- KM [2]: 6.28 ± 2 mM
- self-cleavage kobs at 40 uM GlcN6P [6]: 6.46e-05 ± 2.1e-05 s⁻¹
- self-cleavage kobs at 160 uM GlcN6P [7]: 0.000257 ± 7.7e-05 s⁻¹
- self-cleavage kobs at 640 uM GlcN6P [5]: 0.00074 ± 0.00014 s⁻¹
- self-cleavage kobs at 2500 uM GlcN6P [3]: 0.00232 ± 0.00039 s⁻¹
- self-cleavage kobs at 10000 uM GlcN6P [4]: 0.00583 ± 0.0016 s⁻¹

Variant: G41U U55A
- kcat [1]: 0.000121 ± 2e-05 s⁻¹
- self-cleavage kobs at 160 uM GlcN6P [7]: 5.55e-05 ± 1.3e-05 s⁻¹
- self-cleavage kobs at 640 uM GlcN6P [5]: 0.000132 ± 2e-05 s⁻¹
- self-cleavage kobs at 2500 uM GlcN6P [3]: 0.000105 ± 3.7e-05 s⁻¹
- self-cleavage kobs at 10000 uM GlcN6P [4]: 0.000105 ± 1.7e-05 s⁻¹

Variant: G32U U56C
- kcat [1]: 0.000177 ± 3.9e-05 s⁻¹
- KM [2]: 2.99 ± 1.3 mM
- self-cleavage kobs at 40 uM GlcN6P [6]: < 1e-05 s⁻¹
- self-cleavage kobs at 640 uM GlcN6P [5]: 2.54e-05 ± 8.9e-06 s⁻¹
- self-cleavage kobs at 2500 uM GlcN6P [3]: 0.000105 ± 2.1e-05 s⁻¹
- self-cleavage kobs at 10000 uM GlcN6P [4]: 0.000127 ± 2.4e-05 s⁻¹

Variant: A6G U69A
- kcat [1]: < 1e-05 s⁻¹
- self-cleavage kobs at 160 uM GlcN6P [7]: < 1e-05 s⁻¹
- self-cleavage kobs at 10000 uM GlcN6P [4]: < 1e-05 s⁻¹
